# Assay results taken from article PMC4624786.
# B1: unnamed (parent)
# chain 1: MSMPDAMPLPGVGEELKQAKEIEDAEKYSFMATVTKAPKKQIQFADDMQEFTKFPTKTGRRSLSRSISQSSTDSYSSAASYTDSSDDEVSPREKQQTNSKGSSNFCVKNIKQAEFGRREIEIAEQDMSALISLRKRAQGEKPLAGAKIVGCTHITAQTAVLIETLCALGAQCRWSACNIYSTQNEVAAALAEAGVAVFAWKGESEDDFWWCIDRCVNMDGWQANMILDDGGDLTHWVYKKYPNVFKKIRGIVEESVTGVHRLYQLSKAGKLCVPAMNVNDSVTKQKFDNLYCCRESILDGLKRTTDVMFGGKQVVVCGYGEVGKGCCAALKALGAIVYITEIDPICALQACMDGFRVVKLNEVIRQVDVVITCTGNKNVVTREHLDRMKNSCIVCNMGHSNTEIDVTSLRTPELTWERVRSQVDHVIWPDGKRVVLLAEGRLLNLSCSTVPTFVLSITATTQALALIELYNAPEGRYKQDVYLLPKKMDEYVASLHLPSFDAHLTELTDDQAKYLGLNKNGPFKPNYYRY
# chain 2: MASASSGPAAAGFSSLDAGAPAGTAAASGIKRATVSEGPSASVMPVKKIGHRSVDSSGETTYKKTTSSALKGAIQLGITHTVGSLSTKPERDVLMQDFYVVESIFFPSEGSNLTPAHHYNDFRFKTYAPVAFRYFRELFGIRPDDYLYSLCSEPLIELSNSGASGSLFYVSSDDEFIIKTVQHKEAEFLQKLLPGYYMNLNQNPRTLLPKFYGLYCVQAGGKNIRIVVMNNLLPRSVKMHMKYDLKGSTYKRRASQKEREKTLPTFKDLDFLQDIPDGLFLDADMYSALCKTLQRDCLVLQSFKIMDYSLLMSIHNMDHAQREPTSNDTQYSADTRRPAPQKALYSTAMESIQGEARRGGTVETEDHMGGIPARNNKGERLLLYIGIIDILQSYRFVKKLEHSWKALVHDGDTVSVHRPGFYAERFQRFMCNTVFKKIPLKPSPTKKFRSGPSFSRRSGPSGNSCTSQLMASGEHRAQVTTKAEVEPDVHLGRPDVLPQTPPLEEISEGSPVPGPSFSPVVGQPLQILNLSSTLEKLDVAESEFTH
# B2: unnamed (parent)
# chain 1: B1 chain 1
# chain 2: MATPSNLGSSVLASKTKTKKKHFVAQKVKLFRASDPLLSVLMWGVNHSINELSHVQIPVMLMPDDFKAYSKIKVDNHLFNKENMPSHFKFKEYCPMVFRNLRERFGIDDQDFQNSLTRSAPLPNDSQARSGARFHTSYDKRYVIKTITSEDVAEMHNILKKYHQYIVECHGVTLLPQFLGMYRLNVDGVEIYVIVTRNVFSHRLSVYRKYDLKGSTVAREASDKEKAKELPTLKDNDFINEGQKIYIDDSNKKIFLEKLKKDVEFLAQLKLMDYSLLVGIHDVERAEQEEVECEENEGEEEGESDGAHPIGTPPDSPGNTLNSSPPLAPGEFDPNIDVYAIKCHENAPRKEVYFMAIIDILTHYDAKKKAAHAAKTVKHGAGAEISTVNPEQYSKRFLDFIGHILT
# Variants of: B1
# Assay: co-immunoprecipitation, Western blot quantification
# Conditions: with partner chain of the complex shown; COS-7 cells; n = 4; parent: 100; read off a plot
row,Variant,percent of parent
1,chain 1 S85A,81 % of WT
2,chain 1 S76G,100 % of WT
3,chain 1 S70A,50 % of WT
4,chain 1 S66A,49 % of WT
5,chain 1 T82A,26 % of WT
6,chain 1 S71A,3 % of WT
7,chain 1 S74G,14 % of WT
8,chain 1 S77A,65 % of WT
9,chain 1 S68A,2 % of WT
10,chain 1 S84A,43 % of WT
11,chain 1 S64A,83 % of WT
12,chain 1 S80A,57 % of WT
13,chain 1 S90A,120 % of WT
14,chain 1 T72A,90 % of WT

# Variants of: B2
# Assay: as above
# Conditions: with partner chain of the complex shown; COS-7 cells; n = 4; parent: 100; read off a plot
row,Variant,percent of parent
1,chain 1 S84A,100 % of WT
2,chain 1 S74G,42 % of WT
3,chain 1 S70A,75 % of WT
4,chain 1 S71A,3 % of WT
5,chain 1 S68A,3 % of WT
6,chain 1 S85A,96 % of WT
7,chain 1 T72A,67 % of WT
8,chain 1 S76G,51 % of WT
9,chain 1 S80A,79 % of WT
10,chain 1 S77A,11 % of WT
11,chain 1 S66A,71 % of WT
12,chain 1 S64A,95 % of WT
13,chain 1 S90A,130 % of WT
14,chain 1 T82A,107 % of WT
